The values that follow come from patent publication US20180356429A1.

The target of test [1] is Recombinant human IL-13 (R&D Systems, MN, catalog no. 213-ILB/CF) (human) (UniProt P35225). In words: sandwich pair screen, 100 pg/mL recombinant IL-13, binder is detection Ab; capture Ab 228B/C.
Test [2] has the same target. Kind of test: sandwich pair screen, 100 pg/mL recombinant IL-13, binder is detection Ab; capture Ab 11H4.
For test [3] the target is unchanged. In words: sandwich pair screen, negative (blank) signal, binder is detection Ab; capture Ab 228B/C.
The target is the same in test [4]. Kind of test: sandwich pair screen, 100 pg/mL recombinant IL-13, binder is detection Ab; capture Ab MILR1444A.
Test [5] shares this target. In words: sandwich pair screen, negative (blank) signal, binder is detection Ab; capture Ab MILR1444A.
The target is the same in test [6]. Kind of test: sandwich pair screen, negative (blank) signal, binder is detection Ab; capture Ab 32116.
For test [7] the target is unchanged. In words: sandwich pair screen, negative (blank) signal, binder is detection Ab; capture Ab 11H4.
For test [8] the target is unchanged. In words: sandwich pair screen, 100 pg/mL recombinant IL-13, binder is detection Ab; capture Ab 8C11.
Test [9] shares this target. In words: sandwich pair screen, negative (blank) signal, binder is detection Ab; capture Ab 4D7.
The target is the same in test [10]. In words: sandwich pair screen, 100 pg/mL recombinant IL-13, binder is detection Ab; capture Ab 4D7.
For test [11] the target is unchanged. Kind of test: sandwich pair screen, negative (blank) signal, binder is detection Ab; capture Ab 8C11.
Test [12] has the same target. Kind of test: sandwich pair screen, 100 pg/mL recombinant IL-13, binder is detection Ab; capture Ab 14C9.
Test [13] shares this target. In words: sandwich pair screen, 100 pg/mL recombinant IL-13, binder is detection Ab; capture Ab 32116.
For test [14] the target is unchanged. Kind of test: sandwich pair screen, negative (blank) signal, binder is detection Ab; capture Ab 14C9.

Recombinant human IL-13 (R&D Systems, MN, catalog no. 213-ILB/CF) (human), sequence (P35225 other isoform, or with tags, fused parts or gaps): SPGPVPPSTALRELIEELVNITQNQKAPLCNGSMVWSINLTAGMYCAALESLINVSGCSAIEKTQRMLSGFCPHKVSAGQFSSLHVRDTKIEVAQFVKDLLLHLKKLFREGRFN

As for “MAB213 (R&D Systems, MN, Cat. No. MAB213) (antibody)”, the Assay Signal Pos in test [1] amounted to 52.7; in test [2] it was 2310; in [4], 47.2; in test [8] it was 4.1; in test [10], 23.6; in test [12] it was 33.2. Moreover, the Assay Signal Pos in [13] came out at 18.2. Further, the Assay Signal Neg (blank) in test [3] is 26.5; in test [5] it was 0.3; in [6] it was 17.2; in [7] it was 23.2; in test [9] it was 21.7; in [11], 3.9. Besides, in test [14], the Assay Signal Neg (blank) amounted to 30.
